Laboratory results as given in patent US20250011448A1 (STAIDSON BIOPHARMA, published 2025).

T1: cynomolgus monkey TNFR2 extracellular domain with C-terminal 10×His tag (cynomolgus monkey, UniProt P20333 23-257 (human entry))
T1 construct: also called cynoTNFR2-His; His-tag-cynoTNFR2
T1 chain: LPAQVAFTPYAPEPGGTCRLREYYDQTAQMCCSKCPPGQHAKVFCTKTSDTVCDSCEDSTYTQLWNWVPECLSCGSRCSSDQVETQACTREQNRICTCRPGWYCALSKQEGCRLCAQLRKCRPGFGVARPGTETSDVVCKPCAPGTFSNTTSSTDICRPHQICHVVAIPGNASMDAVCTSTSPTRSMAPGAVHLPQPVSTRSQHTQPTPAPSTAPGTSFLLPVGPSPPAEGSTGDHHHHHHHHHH

T2: human TNFR2 extracellular domain with C-terminal 10×His tag (human, UniProt P20333 23-257)
T2 construct: also called huTNFR2-His; His-tag-huTNFR2
T2 sequence: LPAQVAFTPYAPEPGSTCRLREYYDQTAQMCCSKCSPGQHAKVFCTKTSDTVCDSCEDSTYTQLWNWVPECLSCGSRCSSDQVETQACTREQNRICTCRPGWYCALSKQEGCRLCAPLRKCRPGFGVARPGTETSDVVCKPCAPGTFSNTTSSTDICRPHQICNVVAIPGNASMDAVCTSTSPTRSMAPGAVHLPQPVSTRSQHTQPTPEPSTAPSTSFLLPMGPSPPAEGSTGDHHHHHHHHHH

T3: human TNFR2 expressed on cells (Expi293 cells stably expressing huTNFR2) (human, UniProt P20333 23-461)
T3 construct: whole, on cells; Also used here as the target of the Treg assay (native TNFR2 on human primary Treg cells); also called huTNFR2 expressed cells; Expi293-TNFR2 cells
T3 sequence (looked up): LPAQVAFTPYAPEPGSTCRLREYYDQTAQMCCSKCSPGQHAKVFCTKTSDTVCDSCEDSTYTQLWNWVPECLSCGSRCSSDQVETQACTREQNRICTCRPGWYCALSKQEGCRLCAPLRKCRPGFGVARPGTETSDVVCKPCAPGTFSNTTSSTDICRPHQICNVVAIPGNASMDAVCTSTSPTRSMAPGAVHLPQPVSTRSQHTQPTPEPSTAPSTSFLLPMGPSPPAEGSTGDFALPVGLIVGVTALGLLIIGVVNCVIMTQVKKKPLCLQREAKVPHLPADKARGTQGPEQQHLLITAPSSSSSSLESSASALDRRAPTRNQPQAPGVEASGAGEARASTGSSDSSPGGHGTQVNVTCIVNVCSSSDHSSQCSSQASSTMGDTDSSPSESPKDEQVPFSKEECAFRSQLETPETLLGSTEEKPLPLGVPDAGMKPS


Key:
[1] = target: T1, cynomolgus monkey TNFR2 extracellular …; test: ELISA, plate coated with His-tagged TNFR2 ECD, serial dilution of chimeric IgG
Procedure: (§1) TNFR2 binding of purified recombinant chimeric antibodies: The huTNFR2, cynoTNFR2 antigen binding ELISA was performed on the purified recombinant chimeric antibodies. Briefly, 384-well, clear, flat bottom, high binding plates (VWR, cat #29444-096) were coated overnight at 4° C. with 1 μg/mL of huTNFR2 or cynomolgus monkey TNFR2-His in PBS. After removing the coating solution, the plates were blocked by adding blocking buffer and incubated at room temperature for 1 hour. Plates were then washed 3 times with wash buffer. Serial dilution of purified antibodies in PBS was added to individual well followed by incubation at room temperature for 1 hour. Plates were washed 3 times with wash buffer. Then 50 μL/well of goat anti hu Kappa —AP (Southern Biotech, cat #2061-04) at 1:3000 dilution or goat anti human IgG Fc-AP at 1:3000 dilution in ELISA diluent was added, incubated at room temperature for 1 hour, washed 5 times with wash buffer and developed for 30 minutes with 50 μL/well of pNPP substrate. Plates were analyzed with a Bio-TEK at 405 nm. The chimeric TNFR2 antibodies were tested positive for binding to huTNFR2 and cynoTNFR2. The TNFR2 binding EC50 values are shown in Table 6, FIG. 1A (for huTNFR2) and FIG. 1B (for cynoTNFR2).

[2] = target: T2, human TNFR2 extracellular domain with …; test: as above
Procedure: as §1

[3] = target: T3, human TNFR2 expressed on cells (Expi293 …); test: flow cytometry on Expi293 cells stably expressing huTNFR2
Procedure: The coding sequence of huTNFR2 (Uniprot, P20333) was cloned into a lentiviral vector and the virus was packaged according to the instruction of the virus packaging kit (Lenti-X™ Packaging Single Shots, Cat #631275, Takada). The Expi293 cells were transduced with the recombinant virus and selected by puromycin. The cell line stably expressing huTNFR2 was incubated with anti-TNFR2 antibodies in PBS with 0.5% BSA, 1 mM EDTA, and 0.1% sodium azide (FACS buffer) for 30 minutes at 4° C. The cells were washed, and then incubated with 10 nM phycoerythrin (PE) conjugated anti-Human Fe Ab (Biolegend, cat #409304) for 20 minutes at 4° C. Cells were washed and then […] by flow cytometry with Attune (ThermoFisher Scientific). Data were analyzed with FlowJo software. Antibody binding is represented as median fluorescence intensity (MFI).
As shown by the results in Table 9 and FIG. 4A, the anti-TNFR2 antibodies, 51B5, 102E4, 85G8.4, 29G3, 11C1, and 15H10 bind to Expi293-TNFR2 cells dose-dependently and potently.

Binder	EC50 [1] [pM]	EC50 [2] [pM]	EC50 [3] [pM]
85G8.4 chimeric anti-TNFR2 antibody (antibody, V domains shown, Chimeric: mouse variable domains with human constant regions, made as recombinant IgG1) VH: EVQLQQSGPELVKPGASVKISCKTSGYTFTDFNMDWVKQSHGKSLEWIGYINPNNGDAAYNQKFKSKATLTVDKSSNTAYMELHSLTSDDSAVYYCARWGWAFAYWGQGTLVTVSA VL: DIVMTQSHKIMSTSVGDRVSITCKASQDVKTAVAWYQQKPGQSPKLLIYATSYRYTGVPDRFTGSGSGTDFTFTISTVQAEDLAVYYCQQHYSIPYTFGGGTKLEIK	48.8	39	1460
29G3 chimeric anti-TNFR2 antibody (antibody, V domains shown, Chimeric: mouse variable domains with human constant regions, made as recombinant IgG1) VH: EVMLVESGGASVKPGGSLKLSCAASGFTFSNFAMSWVRQTPEKRLEWVATIRSGDNYSYYSDNVKGRFTISRDNARNTLYLQMSSLRSKDTSIYYCARNWDKVFDYWGQGTTLTVSS VL: DIVLTQSPASLAVSLGQRATISCRASESVDSYGYSFMHWYQQKPGQPPKLLIYRASNLKSGIPARFSGSGSRTDFTLTINPVEADDVATYYCQQSNEDHTFGGGTKLEIK	41.4	29.3	654
15H10 chimeric anti-TNFR2 antibody (antibody, V domains shown, Chimeric: mouse variable domains with human constant regions, made as recombinant IgG1) VH: DVQLQESGPGLVTPSQSLSLTCSVTGYSITSGYYWNWIRQFPGNKLEWMGYITYDGNNNYNPSLKSRFSITRDTSKNQFFLKLNSVTSEDTATYYCARGDYGDSAMDYWGQGTSVTVSS VL: EIVLTQSPAITAASLGQKVTITCSASSGVNYMHWYQQKSGTSPKPWIYEISKLASGVPARFSGSGSGTSYSLTISSMEAEDAAIYYCQQWNYPLITFGAGTKVELK	50	51	2520
11C1 chimeric anti-TNFR2 antibody (antibody, V domains shown, Chimeric: mouse variable domains with human constant regions, made as recombinant IgG1) VH: DVQLRESGPGLVTPSQSLSLTCSVTGYSITSGYYWNWIRQIPGNKLEWMGYITYDGNNNYDPSLKNRISITRDTSKNQFFLTLNSVTSEDTATYYCARGDYGDSAMDYWGQGTSVTVSS VL: EIVLTQSPAITAASLGQKVTITCSASSSVSYMHWYQQKSGTSPKPWIYEISKLASGVPARFSGSGSGTSYSLIISSMEAEDAAIYYCQQWNYPLITFGAGTKLELK	57	50.8	2040
